Experimental data reported in patent US6753315.

Biological target: Torpedo nicotinic acetylcholine receptor (nAChR-enriched membranes) (Torpedo (species not stated)) (UniProt P02710)

Pichia-expressed, purified recombinant α-bungarotoxin (rBgtx) (from UniProt P60615 22-95) (ligand)
reduction in 125I-Bgtx bound: 45%
